Test results published in the domain aggregation screens of Martell et al. (2025).

Experiment: soluble fraction after stress (log2 fold change); higher = more stays soluble; pooled small domains, quantitative proteomics
Conditions: stress: pH 4
Outline: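 Values are on a log2 scale, where higher means more of the domain stayed soluble after pH 4 stress. They are fold changes in the soluble amount of each domain from pooled custom libraries, measured by high-throughput quantitative proteomics. The fold change is taken to reflect aggregation propensity.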

Sequence | soluble fraction (log2)
HMTIATLGERIRKLRKERGLTLAELAGDKLSKGMLSLIENNRAKPSMESLEYIAKRLGVEPAELLE | 0.297
HMHANAALTPRQRLRLAQKIVDEEWTVAAAADYFRVSWPTAAKWARRYVELGEAGMADRSSRP | -0.641
HMDKELILLWDRVKSKVWQMDIQDSQVANWFQRNYHLTVRLRDFDPPVPPDKFTAEQLASFIKDIERHT | -0.000327
HMKQLNKRQDDILSLAEKEGYVSVENLAKTFTVSQQTIRRDINYLSDHEFLVRTHGGAFYSSG | -0.288
HMISKAQLFSEEELTELYRATGYQLENDPEIHREQFEALQAVRAKIEYAVPDVQEKLEQEQNLGQQ | -1
HMSTKYSSNIISLVKGLMEEDQYKDLMGPPLKKEIIKKVESITDTFPYKFDKDDKEFIVKKVLISLRK | 0.148
HMSSEQRSVLFPNLAETDKVAVIEALMAAGVNARVDSASGRVTVPSGDYYNSRAILAAQGLPTS | -0.175
HMNHSITLTERKNLLITGVKKIENFDKEEFLIETTMGFLVVKGDGLELIKLDTISGNVSIKGIVNGFTYID | 0.0772
HMGNRWENLISNKMIDDVDEELLRKYIAQAHDAGRIAISYTDRKTVLNQLELTDGDRLLNAGKVLFSD | -0.657
HMGIAEGSSVFVRVLAAEDGGRYTVSFAGRRFSVLSRQALGIGSAFRADVKVEKGQVLLVPR | -0.348
HMDKTTIKNEQKKQILIFAEMNLFFKAKDVAELLGLQASRARYLLQELVKDGKIQGIGNNKGRKYQLI | -0.591
HMSILPGVYRHYKGNHYQVFYLAKHSETLEDMVVYQALYGERGIWVRPASMWNETVDDQGKQVKRFTYI | -1.22
HMYVVLYPGMARDEAVQVMNELQSRGIDYYEKNGNIYVPKTDENSLRMELANLGYPKTTNNYD | -0.188
HMISEKEIKIIEDILARWNGKLTWDDFTSKVAKKLNLPSLSKFTLMGYPEIKQAFLTRKQTLK | -0.382
HMSRAARLALDALPDEWAQFAESRGLAGSAMAETWETFRDYWQAQPGQKGVKADWAATWRNWVRRETQNRG | -0.074
HMEAKTSNPDYHARLGLTEGEGNDSALGVSVKAAEGGFGLLFGNKVGSDQLVRFANEDQVWLVNRALS | 0.0693
HMNGSVLVTGGSVWIRAGASKETDGLGIVHKGDVLKRSGSDASGWRGVVYEGQNAFISAKYSSI | 0.424
HMSENDTILAKFVSVMGNKNLELVIFPDIAYLKGQVSNPEDKTKAETVAQSLLGGKPLVSLIEFE | -0.917
HMELVQIIGNNIRDLMTTRSVTITDLANYLNVSRQTLQNYLRGSNIIDSVKLVAVSDFFDVPVESLLQSK | -0.783
HMSSQGQNTKTGTVTASALYVRSGAGTNYSQIGYLLKNTKVEIVGQTGSWYKIKFGSGTGYVSSKYIK | 0.0256
HMPTTTFENLPDAKKKTIIAALLKEFSQSPLSKAQVAPIVKESQIARGAFYKYFVDLTDAYTYLYRQ | -0.217
HMKDEGSLKVIGQMVVIGIPQSEAKRFANTYTVAQIRAALQYTQKRSEDKNASKLENVAAYFRQALVRNWG | ≥ 0.43
HMANTVVMPNLLGKTMTEAKIELKELGIDITLKGSESSSKYSAGQIMEQNIAEGTKVEVGSSVEVTIAGS | 0.334
HMSSDEEQLATLTRLLQKQEQIIQTLGPRNPMVSLQQYANTITKVIEMAGFKDTSQFINSQIP | -0.0429
HMGEQVFSRKDLAINGNDLKAVFGWPPGPKYREALDQLFHWVLEDPARNRRETLLAYLHSLYD | -0.774
HMRAEELEQFVERLKNEVMNNFPLKELSDNELREKIENLVEIRLANVYVSIEQRVAIAEQIYSSIR | -0.633

Sequence | soluble fraction (log2)
HMPEQLLNTRIPLEFAGRRFDASLAELFPDYSRSRLAAWIKDGAARLDGETVAPRHTVRGGEQVEILVRM | -0.13
HMIPDMSLELAMSEQTSKGDLYGDLPNDKLALMFNAISKKVPHTDDHKRKMVAIQTILESRAS | 0.0127
HMEASSTAIQAMIRRLIDDENPRKPLSDAKLADLLKSSGIPVARRTVAKYREAMNISASHERVRI | 0.17
HMPRPRIHSVVRGDTLYGISRQYGVAMSKLASLNGLKSPYRIMVGRSLRLPSAIEAERDRTAREVVQ | 0.208
HMGAVQFAEQKIHIGSRWIGKKISEFSAESDAFVILIKRGSEVVIPRGPTDIVENDVLVIHVPD | -1.8
HMQGEDEILKIHEALEELAQIDARLVRVVEMRYFVGLSNQEIADSLGVTTRTVERDWEKARTFLFNALHP | -0.717
HMQENKVLEGKVLEKKKKKVFVDLSPFGVGVIRGVNYLEAKNELKDIEEGDNIKVRVLEIDNENGFIELAL | -1.13
HMQEVILEKIQLTYLSADKLSKMAEQFSIPVKMYWVDENPMMLMVMGNESDIATFKKVLTQIDIPENKS | -1.04
HMGFKLQRYTTFVVERLKKYQDTPAAQMHDLLKEHYPDFPAVSPKTVYNYVMKIRQEHGLPAV | ≥ 0.43
HMLSKEFRFFTYLLESYAQHKNTTAGAVLKTLDEKGLTDFVYKMYDLYHVEAIENAYMDLDSLIATGKPA | -0.989
HMGTRPAYAADAPNPQKRFIYHRIVDQLRNKATGAPISYRAIAAETGVSVQTVINIKNRMNQMLSEK | ≥ 0.43
HMQATETFSLIVPMSSAGNRLDVVLSELLPNFSRKKIQDAIKNGDATLNGKAPKIRDKVYGGENITITLIL | 0.0369
HMTNEQLSKAKSWVQIAVYAAEKLYGAGNGDQKLVYAEEILRKHGIRLDTATLKAMIDAQIKEMEN | 0.131
HMEATVGSRVRLARIGLTLTQKQLAQAVGVSANHLAMVERGSKHASEDLLQRIATATHTTYEWLMGTSEHQ | 0.174
HMKSIPKIKWNSTLENIKNFEYQDNFFESKEMYDLLVSFYKYGFVIIKNIPTNNNFIVKFANSIGS | 0.121
HMSDPSAQADALFNEGKTAEAFNVLLRLIEDSPEDQREDYRVRLLDLFRIAGNTPEVKAARRRLSALLM | -0.101
HMQASTGNVNTETLNLRKEASTSADILKLLSQGDEVEIVSESNGWYKVKYKDTEGFVSKEYITVN | -0.159
HMNMPDVTVEWVKEQQAKFGLTDSDLAKSVNIDNANLARIFNQRGLTKIHKALFYYFFRAYGLQ | -1.1
HMKPRVTVVTLGVDDLERAVRFYAEGLGFPTEGIVGREFEFGAVAFFDMQPGLRLALWPRRSLAHDSGLP | -0.328
HMAENMNAALRVSSLINQIGTVNAKAKDRIESARKAYDALSEAQKAYVANLTTLETAETSLSKL | 0.146
HMGILPDDVKLNIKEAKKIGFPIMLKAIHGGGGRGMMIVQSEDEFADAMKITKTEAKNSFGNGDLYFEKFF | 0.0153
HMGSIEASFEEDVRRYLARKSMTTTEISKKMRQKRPDMSRDQLMTLLANAIKRIKPIKKKIKGTLYLSLE | 0.259
HMIQTKKVTFTVEPTVNFEKINISGIEFKINSGSSITAIYEKNSHNFDEVLDFLKQKGVKILDIVTED | -0.824
HMPNGEAYQRFTYENDILEGRFEEWDSLGTDIVKGDYTAGVRHKKWLYYDSEGRRDKFVFLDMDSI | -0.345
HMGEQVAVPDVTKKSVREVNNILTSAGLRLQIEGSGISVRQDPPADTMVAPDTVVTVSFEPP | -0.0261
HMEEVYVPDIRDKSISDAKKILSQMGLKYRIEGEGYDDSTVIKDQTPKPGALLAKDSVVIAYINE | -0.0728

Sequence | soluble fraction (log2)
HMGIEIKLLMSFMTDSGRKVSLFVTDPREDVTETEIKQVMDLIIEKNIFAPNGEDIVSAKEAKIVQT | -1.2
HMIALLRLGTAPDIKAQAPLATILARHNGEMSAKDLWQRFGGEIDTFYAQLKTEVAHGWILEPT | 0.0698
HMASVRPVAPPDPKTHTRLTYRIRRGDTLERIGRRYRVSIAEIQAWNTLRDPGDILAGQRLVIWIPTS | 0.117
HMVAPPILNITTHIFAEEADLRMVMINGVTRREGDSLGENHRLLEITERGLILIFHNKQYTLDV | -2.1
HMIADPLVINKLMDSMALAINDYNPDSVEPVLDELRQYFSENQLRELSKAMDDFDFDEALNALTLLRT | -0.619
HMQYQIITENGKQYYLYTVQKSEGFYSIGKRFEITNDEIIKANPEAALGLKLGQVLKIPVYK | -0.131
HMVDPRLRSLTPQERRILEHIAEGLTNRQIAEDMFLAEKTVKNYVTSILDKLGMDSRTQAAVYAATHPT | -0.438
HMKDYKSSLQERVQAVGGGQLIYRVNREEGPDHSKTFYMDLFLGDRLIGTGSGRNKKQAEQQAAKEAIERG | 0.0469
HMVKGIVPNLIGKTQDEAKQMAEEYGFSIGTVSEKASDKPKGTVIEQSPKAGAKASGVTSINIVVSDGS | -0.247
HMDRETEEYELIRAKLEWLYQKQTGTIRNQTAKILHHLEIAKEEGNYYLYLKIKEEAKQWLVQASMYLD | -0.725
HMEQIFTELIMDGRVLGENLHRMGVDETWLLRQLRQQGYHSAREVFLAVADANKQVAVYPVS | -0.776
HMDLPRQSQYQALVVSYARRAGIDEAEEDLLAAFEVWRMRHNHDLAGGRTARDFILAYLPQYQRHKE | -0.59
HMDRNEFVSTLRAALTGAVSPAIVEDNVRYYQNYISQEIASGKSEKEVLDGLGDPRLIARTIIDT | 0.14
HMQILVEGVEANQRLDLFLRARLTEFSRSRIQGLVKNGNVLVNGNIARQAYLVQVGDKIELDVPEPVA | 0.112
HMHTGEVVNGKVIDVKEDQIILNVGFKSDGIITRSEYSNDNSLDLRTVVNVGDDMEAKVLKINDGEGQVLL | -0.343
HMIDRADLWEALRKLPEDTLKLFSLHFEKGMTHDEISKHTDIPVGTVKTKLRRGLIEARKLAREF | -0.394
HMTLSDIGHAVRTRRTELGLSQVQLARLSGLSRQTLVGLENGTLNDLGINRVAQLLAVLGLDAP | -0.203
HMQQGVEQLPVTEVGGRLMHYYEVQPKETLYSLSHKLGVGQEYIEQHNPSVRGGLRAFMTLYFPAA | -0.12
HMISADSSKVDTLVQVYSNMKPIQAAQVFEKMDEDLVIEILSRMKKKNAADILNLIKTEKAQVFAEKYA | -0.0774
HMPVPSPAEQTATQLANIERHTGITVDGWTRAIAEAGAAKHGEIVAWLKQQGLTHGNANALAHAVRARQSG | 0.173
HMTPYEVLVYESLKQKILSGGYAAGEKIPEQSVSEELGVSRSPLRSAIRRLASEGLIEYYPYRGAFVKA | -0.751
HMKTRTVVLKSAGGNKIAVIKIIKEITGLGLVEAKAVADNGGNIKENIPAEEAEAIKTQLTEAGAEVEL | -0.242
HMGPEAFPVPYVVDIELDRAIYVIEQSGFIVGQKLEANDNNVPRGFVISQNPPAGTKLGPESIVDLVVSS | -0.281
HMEIALNDKQILLFSNKLVHEPSFASKYSKVGESYDDFAIRISENLTIPDKVQEYLPYLEKVGFNI | -0.191
